Paper PMC3887218

Tests used:
[1] = fluorescence lifetime imaging (TCSPC); in vitro, 4:1 Tau:heparin (Mr 3000), 24 h, 37 °C; K18*: 1 μM, 10% labelled with Alexa Fluor 488, in cell culture medium (3664 ± 25 ps before); hTau40*: 20 μM, 1% labelled, in BES buffer pH 7.4 (3657 ± 18 ps before); a drop of the lifetime reports …; settings: other: fluorescence lifetime imaging (TCSPC)
[2] = fluorescence lifetime imaging (TCSPC); in vitro, pH 4.7, no heparin, 24 h; K18*: 1 μM, 10% labelled, cell culture medium (3824 ± 22 ps soluble); hTau40*: 10 μM, 1% labelled, BES buffer (3765 ± 53 ps soluble); settings: other: fluorescence lifetime imaging (TCSPC)
[3] = target: K18* (four-repeat construct K18 of human Tau with Cys-291 and Cys-322 replaced by alanine and Ile-260 replaced by cysteine) (human); test: SDS-PAGE and Western blot of sequential detergent extracts; SH-SY5Y cells incubated 8 h with 1 μM K18*, trypsin-washed, lysed; Triton and sarkosyl fractions; NuPAGE 4-12% BisTris gel, anti-human Tau antibody A0024

stoichiometry N [3] | Substance | fluorescence lifetime of the Alexa Fluor 488 label, aggregated with heparin [1] [ps when aggregated] | fluorescence lifetime of the Alexa Fluor 488 label, aggregated at pH 4.7 [2] [ps]
 | K18* (four-repeat construct K18 of human Tau with Cys-291 and Cys-322 replaced by alanine and Ile-260 replaced by cysteine) | 3262 ± 71 | 3268 ± 31
2 | K18* (four-repeat construct K18 of human Tau with Cys-291 and Cys-322 replaced by alanine and Ile-260 replaced by cysteine) (domain or fragment) |  | 
